Experimental data from patent US20250353921A1.
Several values for one entry are separate records, joined by “and”; a condition that tells them apart may be missing. Identical values can stand only once.

How the values were obtained:
[1] = target: human OX40 (TNFRSF4, CD134) on cells (human) (UniProt P43489); test: cell-based or functional assay
[2] = target: human OX40 (TNFRSF4, CD134) on cells (human) (UniProt P43489); test: flow cytometry on Jurkat-NFκB (OX40) cells, detection with anti-human IgG Fc-AF647
[3] = target: Human OX40 (Acro Biosystems, catalog NO: OXO-H5224) protein (human) (UniProt P43489); test: SPR Biacore 8K+, single cycle kinetics, antibody captured by anti-human Fc, OX40 analyte, pH 7.4, 25 °C
Chain of Human OX40 (Acro Biosystems, catalog NO: OXO-H5224) protein (human) (P43489 29-216 limits assumed): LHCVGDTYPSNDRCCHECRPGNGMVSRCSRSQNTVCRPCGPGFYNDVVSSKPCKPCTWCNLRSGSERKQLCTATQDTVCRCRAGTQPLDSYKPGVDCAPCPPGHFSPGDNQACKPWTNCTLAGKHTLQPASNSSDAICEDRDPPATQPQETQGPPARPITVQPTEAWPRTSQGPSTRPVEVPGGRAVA

Chain of human OX40 (TNFRSF4, CD134) on cells (human) (P43489 29-277 limits assumed): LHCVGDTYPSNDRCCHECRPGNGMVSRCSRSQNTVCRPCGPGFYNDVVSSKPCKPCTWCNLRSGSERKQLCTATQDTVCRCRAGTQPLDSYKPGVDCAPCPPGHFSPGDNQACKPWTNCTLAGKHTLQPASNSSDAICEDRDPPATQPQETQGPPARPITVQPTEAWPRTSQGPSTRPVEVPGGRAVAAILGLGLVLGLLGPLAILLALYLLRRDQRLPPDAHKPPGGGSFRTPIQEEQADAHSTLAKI

## IMG-007 (antibody)
[1]
  luminescence, Jurkat-NFκB-OX40 agonism assay: 3 fold

## MEDI0562 (humanized 9B12, tavolixizumab) (antibody)
[1]
  average proliferation index (Av), coated T cell agonism assay: 3.41
  luminescence, Jurkat-NFκB-OX40 agonism assay: > 2 fold
  responders (Resp) of donors tested, coated T cell agonism assay (responders of 11 donors): 9
[2]
  EC50 (read off the curve): 0.1 µg/mL

## IgG1 control (antibody)
[1]
  Maximum killing (%), ADCC, activated T cells: 2.27%
  Maximum killing (%), ADCC, regulatory T cells: -0.83%
  average proliferation index (Av), coated T cell agonism assay: 1.16
  responders (Resp) of donors tested, coated T cell agonism assay (responders of 15 donors): 0

## AMG451 (rocatinlimab) (antibody)
[1]
  ADCC EC50, activated T cells: 0.008 nM
  ADCC EC50, in vitro differentiated Tregs: 0.005 nM
  ADCC EC50, regulatory T cells (LDH release): 0.05 nM
  EC50, inhibition of IL-2 release: 5.87 nM
  EC50, inhibition of IL-4 release: 1.77 nM
  EC50, inhibition of IL-5 release: 18.6 nM
  EC50, inhibition of IL-8 release: 4.05 nM
  EC50, inhibition of IL-10 release: 20.3 nM
  EC50, inhibition of IL-13 release: 4 nM
  EC50, inhibition of IL-17a release: 11.7 nM
  EC50, inhibition of IL-21 release: 2.75 nM
  EC50, inhibition of IL-22 release: 10.4 nM
  EC50, inhibition of IL-31 release: 1.84 nM
  EC50, inhibition of T cell proliferation: 0.15 nM and 0.019 µg/ml
  EC50, inhibition of TNF-α release: 3.9 nM
  Maximum killing (%), ADCC, activated T cells: 60.3%
  Maximum killing (%), ADCC, regulatory T cells: 85.8%
  responders (Resp) of donors tested, coated T cell agonism assay (responders of 9 donors): 7
[3]
  Kd: 3 nM
